US20150218227

Tests used:
[1] = biological target: PPR10 ND variant motifs 6 and 7 (position 6, 1') changed to N6,D1' (Zea mays) (UniProt B8Y6I0); assay: EMSA; details: RNA 15 pM
[2] = biological target: PPR10 NS variant motifs 6 and 7 (position 6, 1') changed to N6,S1' (Zea mays) (UniProt B8Y6I0); assay: EMSA; details: RNA 15 pM

Substance | Kd [1] [nM] | Kd [2] [nM]
atpH CC-substituted RNA | 17 | 9
atpH UU-substituted RNA | 3 | 20
